Target: GST-HA-ATG16L1(231–607), Q676U5
Test: peptide microarray
Conditions: chain shown with the change; 800, 600, 400 nM; n = 9; read off a plot

Sequence of GST-HA-ATG16L1(231–607), Q676U5 (Q676U5 231-607): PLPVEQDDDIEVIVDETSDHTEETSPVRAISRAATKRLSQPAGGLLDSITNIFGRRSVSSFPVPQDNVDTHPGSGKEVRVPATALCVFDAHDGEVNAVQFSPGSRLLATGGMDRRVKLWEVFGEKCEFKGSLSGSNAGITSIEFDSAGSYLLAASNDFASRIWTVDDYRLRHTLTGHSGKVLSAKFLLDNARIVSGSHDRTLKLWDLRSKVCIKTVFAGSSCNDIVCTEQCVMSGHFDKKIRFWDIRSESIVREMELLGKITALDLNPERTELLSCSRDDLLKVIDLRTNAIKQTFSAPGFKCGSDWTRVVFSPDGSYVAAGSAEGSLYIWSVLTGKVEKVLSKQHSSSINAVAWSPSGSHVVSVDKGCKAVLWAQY

Binder | percent of parent
YVPSELYGDL [TMEM59 peptide (residues 268–280), wild type, Q9BXS4 K273del; S275del; I276del] | 110 % WT
YEKLSIYGDL [TMEM59 peptide (residues 268–280), wild type, Q9BXS4 V269del; P270del; S271del] | 160 % WT

— article PMC7679444
